Several values for one entry are separate records, joined by “and”; a condition that tells them apart may be missing. Identical values can stand only once.
B1: Tryptophan synthase alpha chain, P00929 (parent)
chain: MERYENLFAQLNDRREGAFVPFVTLGDPGIEQSLKIIDTLIDAGADALELGVPFSDPLADGPTIQNANLRAFAAGVTPAQCFEMLALIREKHPTIPIGLLMYANLVFNNGIDAFYARCEQVGVDSVLVADVPVEESAPFRQAALRHNIAPIFICPPNADDDLLRQVASYGRGYTYLLSRSGVTGAENRGALPLHHLIEKLKEYHAAPALQGFGISSPEQVSAAVRAGAAGAISGSAIVKIIEKNLASPKQMLAELRSFVSAMKAASRA

Variants of: B1
Details: Salmonella typhimurium (strain LT2 / SGSC1412 / ATCC 700720); pH 7.8; 25 °C; Urea; CD; Potassium phosphate 10 mM; transition: 3; structure 2WSY; whole UniProt chain shown

A18V I232V
denaturant m value: 2.1 kcal/mol/M and 1.8 kcal/mol/M
denaturant midpoint (higher = more stable): 2.12 M and 3.73 M
unfolding free energy: 4.4 kcal/mol and 6.8 kcal/mol

I232V
ddG of mutation (higher = less stable): 3.9 kcal/mol and 1.5 kcal/mol
denaturant m value: 1.5 kcal/mol/M and 1.3 kcal/mol/M
denaturant midpoint (higher = more stable): 2.31 M and 3.28 M
unfolding free energy: 3.5 kcal/mol and 4.3 kcal/mol

A18G I232V
denaturant m value: 0.9 kcal/mol/M and 1.6 kcal/mol/M
denaturant midpoint (higher = more stable): 2.08 M and 3.46 M
unfolding free energy: 1.9 kcal/mol and 5.6 kcal/mol

Y175Q
denaturant m value: 2.9 kcal/mol/M and 2.7 kcal/mol/M
denaturant midpoint (higher = more stable): 2.05 M and 2.91 M
unfolding free energy: 6 kcal/mol and 7.9 kcal/mol

L209V
ddG of mutation (higher = less stable): 3.4 kcal/mol and 2 kcal/mol
denaturant m value: 1.7 kcal/mol/M and 1.1 kcal/mol/M
denaturant midpoint (higher = more stable): 2.3 M and 3.44 M
unfolding free energy: 4 kcal/mol and 3.8 kcal/mol

A18V
denaturant m value: 1.5 kcal/mol/M
denaturant midpoint (higher = more stable): 3.77 M and 2.24 M
unfolding free energy: 5.8 kcal/mol and 3.3 kcal/mol

A18G
ddG of mutation (higher = less stable): 4.1 kcal/mol
denaturant m value: 1.7 kcal/mol/M
denaturant midpoint (higher = more stable): 1.88 M
unfolding free energy: 3.3 kcal/mol

Y175Q L209V
denaturant m value: 1.6 kcal/mol/M and 2.2 kcal/mol/M
denaturant midpoint (higher = more stable): 2.23 M and 4.32 M
unfolding free energy: 3.6 kcal/mol and 9.7 kcal/mol

Reference: FireProtDB (doi:10.1021/bi00072a011)
